Experimental data taken from US20260116980A1.

Target: B7H3 on H358 tumor cells (UniProt Q5ZPR3)
Assay: FACS on H358 cells, 1 h on ice, fluorescence-labelled anti-human Fc

Chain of B7H3 on H358 tumor cells (Q5ZPR3 29-534): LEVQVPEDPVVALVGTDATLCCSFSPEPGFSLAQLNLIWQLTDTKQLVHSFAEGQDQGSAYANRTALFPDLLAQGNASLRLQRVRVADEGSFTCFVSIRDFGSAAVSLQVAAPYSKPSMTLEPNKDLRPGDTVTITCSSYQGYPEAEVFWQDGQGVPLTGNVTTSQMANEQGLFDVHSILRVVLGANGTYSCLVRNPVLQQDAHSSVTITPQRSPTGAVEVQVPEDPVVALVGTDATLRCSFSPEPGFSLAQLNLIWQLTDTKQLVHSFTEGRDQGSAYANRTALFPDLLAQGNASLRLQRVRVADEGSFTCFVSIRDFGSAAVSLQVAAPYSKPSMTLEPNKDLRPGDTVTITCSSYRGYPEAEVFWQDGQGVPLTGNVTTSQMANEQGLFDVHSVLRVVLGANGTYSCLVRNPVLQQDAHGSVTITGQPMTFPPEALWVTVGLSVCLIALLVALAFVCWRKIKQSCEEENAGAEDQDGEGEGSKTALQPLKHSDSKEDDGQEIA

EC50 (read off the curve): 1 nM
Substance: MABX-9001a (a humanized anti-B7H3 IgG1 monoclonal antibody used for DS-7300a)
